Tests used:
[1] = molecular target: T1, control peptide A2E-2/HLA-A*02:01 complex on T2 cells (member of the P19 mixture) (human); test: flow cytometry, phage on T2 cells
T1 construct: Loaded on T2 cells as part of the mixture of 19 control peptides
Source text: (§1) Binding of the phage clones was detected by HRP-conjugated anti-M13 antibodies and developed using HRP substrate. The absorbance was read at 450 nm. […] Then, unique antibody clones were identified through DNA sequencing of ELISA-positive clones. […] T2 cells loaded with different peptides and β2M were first stained with purified scFv phage clones, followed by staining with a mouse anti-M13 mAb, and finally R-PE conjugated horse anti-mouse IgG from Vector Labs. Each step of the staining was performed for between 30-60 minutes on ice and the cells were washed twice between stainings. All 16 clones recognized PSA146-loaded T2 cells specifically. FIG. 3 provides examples of PSA146/HLA-A*02:01 specific phage clone binding to peptide-loaded T2 cells through FACS. […] The negative control scFv phage clone presents a human antibody previously found not to bind any cell-surface human antigens.
(§2) To identify additional PSA146/HLA-A*02:01 specific phage clones.

[2] = molecular target: T2, control peptide A2E-15/HLA-A*02:01 complex on T2 cells (member of the P19 mixture) (human); test: flow cytometry, phage on T2 cells
T2 construct: Loaded on T2 cells as part of the mixture of 19 control peptides
Source text: as §1, §2

[3] = molecular target: T3, control peptide A2E-16/HLA-A*02:01 complex on T2 cells (member of the P19 mixture) (human); test: flow cytometry, phage on T2 cells
T3 construct: Loaded on T2 cells as part of the mixture of 19 control peptides
Source text: as §1, §2

[4] = molecular target: T4, control peptide A2E-11/HLA-A*02:01 complex on T2 cells (member of the P19 mixture) (human); test: flow cytometry, phage on T2 cells
T4 construct: Loaded on T2 cells as part of the mixture of 19 control peptides
Source text: as §1, §2

[5] = molecular target: T5, control peptide A2E-23/HLA-A*02:01 complex on T2 cells (member of the P19 mixture) (human); test: flow cytometry, phage on T2 cells
T5 construct: Loaded on T2 cells as part of the mixture of 19 control peptides
Source text: as §1, §2

[6] = molecular target: T6, control peptide A2E-14/HLA-A*02:01 complex on T2 cells (member of the P19 mixture) (human); test: flow cytometry, phage on T2 cells
T6 construct: Loaded on T2 cells as part of the mixture of 19 control peptides
Source text: as §1, §2

[7] = molecular target: T7, control peptide A2E-9/HLA-A*02:01 complex on T2 cells (member of the P19 mixture) (human); test: flow cytometry, phage on T2 cells
T7 construct: Loaded on T2 cells as part of the mixture of 19 control peptides
Source text: as §1, §2

[8] = molecular target: T8, control peptide A2E-8/HLA-A*02:01 complex on T2 cells (member of the P19 mixture) (human); test: flow cytometry, phage on T2 cells
T8 construct: Loaded on T2 cells as part of the mixture of 19 control peptides
Source text: as §1, §2

[9] = molecular target: T9, control peptide A2E-19/HLA-A*02:01 complex on T2 cells (member of the P19 mixture) (human); test: flow cytometry, phage on T2 cells
T9 construct: Loaded on T2 cells as part of the mixture of 19 control peptides
Source text: as §1, §2

[10] = molecular target: T10, control peptide A2E-21/HLA-A*02:01 complex on T2 cells (member of the P19 mixture) (human); test: flow cytometry, phage on T2 cells
T10 construct: Loaded on T2 cells as part of the mixture of 19 control peptides
Source text: as §1, §2

[11] = molecular target: T11, control peptide A2E-3/HLA-A*02:01 complex on T2 cells (member of the P19 mixture) (human); test: flow cytometry, phage on T2 cells
T11 construct: Loaded on T2 cells as part of the mixture of 19 control peptides
Source text: as §1, §2

[12] = molecular target: T12, control peptide A2E-10/HLA-A*02:01 complex on T2 cells (member of the P19 mixture) (human); test: flow cytometry, phage on T2 cells
T12 construct: Loaded on T2 cells as part of the mixture of 19 control peptides
Source text: as §1, §2

[13] = molecular target: T13, control peptide A2E-5/HLA-A*02:01 complex on T2 cells (member of the P19 mixture) (human); test: flow cytometry, phage on T2 cells
T13 construct: Loaded on T2 cells as part of the mixture of 19 control peptides
Source text: as §1, §2

[14] = molecular target: T14, control peptide A2E-4/HLA-A*02:01 complex on T2 cells (member of the P19 mixture) (human); test: flow cytometry, phage on T2 cells
T14 construct: Loaded on T2 cells as part of the mixture of 19 control peptides
Source text: as §1, §2

[15] = molecular target: T15, control peptide A2E-13/HLA-A*02:01 complex on T2 cells (member of the P19 mixture) (human); test: flow cytometry, phage on T2 cells
T15 construct: Loaded on T2 cells as part of the mixture of 19 control peptides
Source text: as §1, §2

[16] = molecular target: T16, control peptide A2E-6/HLA-A*02:01 complex on T2 cells (member of the P19 mixture) (human); test: flow cytometry, phage on T2 cells
T16 construct: Loaded on T2 cells as part of the mixture of 19 control peptides
Source text: as §1, §2

[17] = molecular target: T17, control peptide A2E-1/HLA-A*02:01 complex on T2 cells (member of the P19 mixture) (human); test: flow cytometry, phage on T2 cells
T17 construct: Loaded on T2 cells as part of the mixture of 19 control peptides
Source text: as §1, §2

[18] = molecular target: T18, control peptide A2E-7/HLA-A*02:01 complex on T2 cells (member of the P19 mixture) (human); test: flow cytometry, phage on T2 cells
T18 construct: Loaded on T2 cells as part of the mixture of 19 control peptides
Source text: as §1, §2

[19] = molecular target: T19, control peptide A2E-17/HLA-A*02:01 complex on T2 cells (member of the P19 mixture) (human); test: flow cytometry, phage on T2 cells
T19 construct: Loaded on T2 cells as part of the mixture of 19 control peptides
Source text: as §1, §2

[20] = molecular target: T20, PSA 146-154 peptide/HLA-A*02:01 complex on the cell surface (human); test: flow cytometry, phage on T2 cells, anti-M13 + R-PE anti-mouse IgG
T20 construct: also called PSA146/HLA-A*02:01; PSA146-loaded T2 cells
Source text: as §1, §2

Row | Binder | binding result [1] | binding result [2] | binding result [3] | binding result [4] | binding result [5] | binding result [6] | binding result [7] | binding result [8] | binding result [9] | binding result [10] | binding result [11] | binding result [12] | binding result [13] | binding result [14] | binding result [15] | binding result [16] | binding result [17] | binding result [18] | binding result [19] | binding result [20]
1 | PSA146/HLA-A*02:01-specific scFv phage clone #24 (scFv, V domains shown) VH: QVQLVQSGAEVKKPGASVKVSCKASGYTFTSYYMHWVRQAPGKGLEWMGGFDPEDGETIYAQKFQGRVTMTEDTSTDTAYMELSSLRSEDTAVYYCARYPWDHWGQGTLVTVSS VL: QAVVTQEPSLTVSPGGTVTLTCASSTGAVTSGYYPNWFQQKPGQAPRPLIYSTNNKHSWTPARFSGSLLGGKAALTLSGVQPEDEAEYYCLLYYGGQGVFGGGTKLTVLG | no binding | no binding | no binding | no binding | no binding | no binding | no binding | no binding | no binding | no binding | no binding | no binding | no binding | no binding | no binding | no binding | no binding | no binding | no binding | binds
2 | PSA146/HLA-A*02:01-specific scFv phage clone #21 (scFv, V domains shown) VH: QVQLVQSGAEVKKPGASVKVSCKASGYTFTSYYMHWVRQAPGKGLEWMGGFDPEDGETIYAQKFQGRVTMTEDTSTDTAYMELSSLRSEDTAVYYCARYNYDTWGQGTLVTVSS VL: QAVVTQEPSLTVSPGGTVTLTCASSTGTVTSTYYPNWFQQKPGQAPRALIYSTSNRHSWTPARFSGSLLGGKAALTVSGVQPDDEAEYYCLVFYGGVWVFGGGTKLTVLG | no binding | no binding | no binding | no binding | no binding | no binding | no binding | no binding | no binding | no binding | no binding | no binding | no binding | no binding | no binding | no binding | no binding | no binding | no binding | binds
3 | PSA146/HLA-A*02:01-specific scFv phage clone #20 (scFv, V domains shown) VH: EVQLVQSGAEVKKPGESLKISCKGSGYSFTSYRIGWVRQMPGKGLEWMGIIYPGDSDTRYSPSFQGQVTISADKSISTAYLQWSSLKASDTAMYYCARWGLSWDGWGVTDYWGQGTLVTVSS VL: not shown | no binding | no binding | no binding | no binding | no binding | no binding | no binding | no binding | no binding | no binding | no binding | no binding | no binding | no binding | no binding | no binding | no binding | no binding | no binding | binds
4 | PSA146/HLA-A*02:01-specific scFv phage clone #22 (scFv, V domains shown) VH: EVQLVQSGAEVKKPGESLKISCKGSGYSFTSYWIGWVRQMPGKGLEWMGRIDPSDSYTNYSPSFQGHVTISADKSISTAYLQWSSLKASDTAMYYCARSFGAGYDSWGQGTLVTVSS VL: QSALTQPASVSGSPGQSITISCTGTSSDVGGYNYVSWYQQHPGKAPKLMIYDVSKRPSGVSNRFSGSKSGNTASLTISGLQAEDEADYYCSSYTSSSRYVFGTGTKVTVLG | – | – | – | – | – | – | – | – | – | – | – | – | – | – | – | – | no binding | – | – | binds
5 | PSA146/HLA-A*02:01-specific scFv phage clone #26 (scFv, V domains shown) VH: QVQLVQSGAEVKKPGASVKVSCKTSGYTFTNYGISWVRQAPGQGLEWMGWISAYNGNTNYAQNLQGRVTMTTDTSTSTAYMELRSLRSDDTAVYYCARSSYYGYLSDGWGQGTLVTVSS VL: LPVLTQPPSASGTPGQRVTISCSGSSSNIGTNYVYWYQQLPGTAPKLLIYSNNQRPSGVPDRFSGSKSGTSASLAISGLRSEDEADYYCAAWDDSLSGLYVFGTGTKVTVLG | no binding | no binding | no binding | no binding | no binding | no binding | no binding | no binding | no binding | no binding | no binding | no binding | no binding | no binding | no binding | no binding | no binding | no binding | no binding | binds

— US20200087400A1 (EUREKA THERAPEUTICS, published 2020)
